Measured values: the Human Domainome abundance scans (Beltran et al. 2025)

B1: KAT8 regulatory NSL complex subunit 2, residues 28 to 91; numbered along this chain, Q9H9L4 (parent)
chain: CAFTHRPCSHPRLEGQEFCIKHILEDKNAPFKQCSYISTKNGKRCPNAAPKPEKKDGVSFCAEH

Variants of: B1
Experiment: abundance fitness (aPCA) (normalised: wild type 0, dead -1); higher = more abundant; growth selection in yeast, the domain comes from the species named
Conditions: Homo sapiens

Abundance fitness: each site, then its substitutions
N41: G -0.03, P -0.13, F -0.086, S -0.052, E -0.005, R -0.06, H -0.115, C -0.161, W -0.171, Q -0.098, T -0.195
G57: S -0.372, D -0.138
C45: S -0.378, L -0.441, N -0.398, I -0.594, G -0.427, V -0.465, E -0.193, P -0.561, A -0.459, Y -0.671, F -0.609, H -0.581, W -0.79, R -0.635, M -0.438
K51: P -0.109, S -0.105, L -0.101, Y -0.327, H -0.166, T -0.112, N -0.195, A -0.03, M -0.099, D -0.05, V -0.035, I -0.041, G -0.033, Q -0.217, E -0.064, F -0.21, R -0.087, C -0.072
S38: R -0.06, P -0.028, N -0.122, Y -0.065, W -0.076, V -0.024, T -0.104, Q -0.08
S59: F -0.062, P -0.141, T -0.036, I -0.006, C -0.089, W 0.01, H -0.157, Y -0.048, R -0.12, Q -0.045, A -0.056, M -0.084, G -0.024, L -0.037, V -0.095, N -0.189, E -0.243
A48: E -0.28, P -0.079, I -0.204, V -0.178, W -0.333, Q -0.238, R -0.166, M -0.159, F -0.204, C -0.078, H -0.336, N -0.293, L -0.16, Y -0.167, S -0.168
P50: F -0.135, K -0.176, Y -0.249, A -0.213, H -0.135, V -0.204, M -0.219, I -0.184, G -0.211, D -0.302, L -0.131, Q -0.265, E 0.095, R -0.106, S -0.104, W -0.287, N -0.126, C -0.1
P46: G -0.022, S -0.049, I -0.073, T -0.049, M -0.1, W -0.024, V -0.069, Y -0.105, D -0.155, C -0.065, L -0.079, A -0.119, Q -0.1, K 0.025, R -0.042, F -0.148, E -0.031, N -0.014, H -0.165
G42: V -0.108, D -0.092, R -0.038, F -0.22, S -0.063, C -0.105, I -0.206, Y -0.094, L -0.125, M -0.139, W -0.246, Q -0.008, K 0.051, T -0.055, H -0.141, A -0.053, E -0.005, N -0.117, P -0.1
E63: A -0.064, C -0.111, I -0.223, F -0.107, G -0.034, K -0.09, D 0.003, H 0.136
A49: L -0.094, K -0.321, H -0.147, C -0.148, E -0.212, W -0.315, I -0.076, P -0.219, N -0.143, T -0.005, Q -0.3, G -0.06, V 0.076, D -0.339, R -0.332, F -0.124, Y -0.261
